From patent publication US20150322119A1 come the findings set out here.

In one assay the target is mouse FcRn (mouse) (UniProt Q61559). Description: SPR, FcRn coated on CM5 chip, antibody flowed at pH 6.0. A general note: Surface plasmon resonance follows binding to a sensor surface in real time, without labels.
Assay [1] deals with murine FcγRIV, soluble form (mouse). Description: SPR, equilibrium KD.
In assay [2] the target is murine FcγRIIB, soluble form (mouse) (UniProt P08101). Description: SPR, equilibrium KD.
In assay [3] the target is murine FcγRIII, soluble form (mouse) (UniProt P08508). Description: SPR, equilibrium KD.
Assay [4] addresses murine FcγRI extracellular domain with C-terminal 6×His-tag (mouse) (UniProt P26151). Description: SPR, equilibrium KD.
UniProt P26151, sequence (P26151 other isoform, or with tags, fused parts or gaps): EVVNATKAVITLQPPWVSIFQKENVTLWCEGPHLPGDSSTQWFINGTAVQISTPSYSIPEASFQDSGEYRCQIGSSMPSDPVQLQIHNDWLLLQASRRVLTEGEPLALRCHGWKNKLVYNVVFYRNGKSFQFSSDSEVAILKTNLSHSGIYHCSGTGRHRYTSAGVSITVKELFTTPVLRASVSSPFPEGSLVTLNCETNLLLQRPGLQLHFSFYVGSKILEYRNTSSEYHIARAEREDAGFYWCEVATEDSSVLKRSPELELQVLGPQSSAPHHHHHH

UniProt P08101, sequence (P08101 30-207 limits assumed): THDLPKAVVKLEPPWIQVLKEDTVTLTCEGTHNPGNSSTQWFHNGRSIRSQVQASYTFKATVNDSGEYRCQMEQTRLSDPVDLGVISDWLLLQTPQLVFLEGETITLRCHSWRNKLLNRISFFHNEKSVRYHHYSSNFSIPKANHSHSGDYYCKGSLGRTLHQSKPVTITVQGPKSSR
UniProt P08508, sequence (P08508 31-215 limits assumed): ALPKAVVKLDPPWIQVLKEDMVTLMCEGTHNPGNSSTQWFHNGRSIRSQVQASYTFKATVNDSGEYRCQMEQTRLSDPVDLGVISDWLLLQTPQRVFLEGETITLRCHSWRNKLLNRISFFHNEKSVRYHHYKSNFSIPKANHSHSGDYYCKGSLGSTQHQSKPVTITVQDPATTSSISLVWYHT
UniProt Q61559, sequence (Q61559 22-297 limits assumed): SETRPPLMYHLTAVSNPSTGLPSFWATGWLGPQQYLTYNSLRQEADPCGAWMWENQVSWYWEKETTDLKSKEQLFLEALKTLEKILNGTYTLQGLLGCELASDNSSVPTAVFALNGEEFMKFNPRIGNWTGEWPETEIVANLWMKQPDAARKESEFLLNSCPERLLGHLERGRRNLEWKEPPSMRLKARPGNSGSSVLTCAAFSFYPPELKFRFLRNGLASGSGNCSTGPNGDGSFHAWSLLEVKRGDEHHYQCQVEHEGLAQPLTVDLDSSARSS
mouse anti-mouse CTLA-4 antibody 9D9, mouse IgG2a isotype, sequence (P01863 whole entry): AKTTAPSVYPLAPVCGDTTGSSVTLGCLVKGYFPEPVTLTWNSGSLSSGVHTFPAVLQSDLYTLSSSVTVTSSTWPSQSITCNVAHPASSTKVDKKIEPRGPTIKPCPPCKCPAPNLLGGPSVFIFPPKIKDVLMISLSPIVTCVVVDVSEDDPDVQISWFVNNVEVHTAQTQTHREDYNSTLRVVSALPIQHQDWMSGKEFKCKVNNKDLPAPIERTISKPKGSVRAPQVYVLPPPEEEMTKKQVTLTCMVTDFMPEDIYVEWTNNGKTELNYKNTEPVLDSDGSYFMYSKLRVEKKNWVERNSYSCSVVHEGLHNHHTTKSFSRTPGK

By Kd is commonly meant the concentration at which binding is half-saturated. Higher therefore signals lower affinity. Take “mouse anti-mouse CTLA-4 antibody 9D9, mouse IgG2a isotype”: the Kd was 13.5 nM with mouse FcRn (mouse); 29.4 nM in assay [1]; 1410 nM in assay [2]; 1500 nM in assay [3]; 32.7 nM in assay [4].
Substance “mouse anti-mouse CTLA-4 antibody 9D9, mouse IgG1 isotype containing a D265A mutation (from UniProt P01868 1-324)” showed a Kd in the assay with mouse FcRn (mouse) of 24.6 nM.
With “mouse anti-mouse CTLA-4 antibody 9D9, mouse IgG1 isotype”, the figures for the Kd (in the assay with mouse FcRn (mouse); in assay [2]; in assay [3]) were 22.4 nM, 479 nM and 1880 nM, respectively.
Regarding “mouse anti-mouse CTLA-4 antibody 9D9, mouse IgG2b isotype (original isotype, derived from the hybridoma)”, the Kd with mouse FcRn (mouse) is 19.7 nM; in assay [1] it was 56.3 nM; in assay [2], 748 nM; in assay [3], 2440 nM.
